Test results from patent US20250382359A1 (BYOMASS, published 2025).
Residue numbers refer to the chain shown, from its start. Values joined by “and” are separate entries in the source; they are usually repeats but may differ in a detail not shown here. Equal values may be shown once. One block for each binder: values may come before it.

Assays:
Human GDF15 Fc [1] = target: T1, Human GDF15 Fc (human, UniProt Q99988 195-308, limits assumed, biotinylated (EZ-Link Sulfo-NHS-Biotinylation Kit) in the SPR assay); experiment: SPR Biacore 8K; biotinylated antigen captured, Fab analyte
T1 construct: also called human GDF15-Fc fusion; biotinylated Human GDF15 Fc; not shown: Fc part
T1 sequence: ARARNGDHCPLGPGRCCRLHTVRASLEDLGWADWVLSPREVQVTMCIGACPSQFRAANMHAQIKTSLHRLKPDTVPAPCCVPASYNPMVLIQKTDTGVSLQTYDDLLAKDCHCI
Protocol: Kinetic analysis was conducted at 25° C. in HBS-EP+running buffer (10 mM HEPES pH 7.4, 150 mM NaCl, 3 mM EDTA, 0.05% Surfactant P20) using a Biacore 8K optical biosensor (Cytiva, Marlborough, MA). The sample compartment was maintained at 10° C. for the duration of the experiment. The Biacore 8K can analyze up to 8 separate interactions in a single cycle.
Each experiment cycle began with an injection (300 s at 2 μL/min) overflow cells 1 and 2 of a 1:100 solution of biotin CAPture reagent (Cytiva) in running buffer. This was followed by an injection (45 s at 10.0 μL/min) of biotinylated human GDF15 (5 nM) overflow cell 2. […] The dissociation of the antibodies were monitored for 3420 s. Finally, an injection (120 s at 10 μL/min) of regeneration solution (6 M Guanidine-HCl in 0.25 M NaOH) overflow cells 1 and 2 prepared the sensor surface for another cycle. Several blank buffer samples were injected (300 s at 30 μL/min) overflow cells 1 and 2 throughout the duration of the experiment and used for reference surface subtraction—each were monitored for the same amount of dissociation time (3420 s) and regenerated under the same conditions as those for the Fab sample injections.

Mouse GDF15 Fc = target: T2, Mouse GDF15 Fc (mouse, UniProt Q9Z0J7 189-303, limits assumed); experiment: BLI Octet; antigen on sensor, 100 nM Fab (monovalent)
T2 construct: also called mouse GDF15-Fc fusion; not shown: Fc part
T2 sequence (looked up): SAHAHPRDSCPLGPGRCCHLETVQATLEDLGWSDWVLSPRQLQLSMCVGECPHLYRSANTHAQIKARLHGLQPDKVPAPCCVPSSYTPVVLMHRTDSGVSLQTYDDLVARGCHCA

Cyno GDF15 Fc = target: T3, Cyno GDF15 Fc (cyno, UniProt G7PWZ3 193-308, limits assumed); experiment: as above
T3 construct: also called cyno GDF15-Fc fusion; not shown: Fc part
T3 sequence: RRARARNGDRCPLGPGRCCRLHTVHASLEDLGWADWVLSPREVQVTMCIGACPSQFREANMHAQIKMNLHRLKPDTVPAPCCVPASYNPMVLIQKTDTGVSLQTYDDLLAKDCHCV

Human GDF15 Fc [2] = target: T1, Human GDF15 Fc; experiment: as above
[3] = target: T4, GDF15 (ligand used in the GFRAL/RET cell assays) (UniProt Q99988 197-308, limits assumed); experiment: cell-based or functional assay
T4 sequence (looked up): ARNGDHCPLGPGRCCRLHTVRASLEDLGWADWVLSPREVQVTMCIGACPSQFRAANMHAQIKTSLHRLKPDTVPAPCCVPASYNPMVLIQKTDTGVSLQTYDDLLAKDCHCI

Kd (Human GDF15 Fc [1]): 0.0331 nM | koff (Human GDF15 Fc [1]): 8.71e-05 s⁻¹ | kon (Human GDF15 Fc [1]): 2.63e+06 M⁻¹ s⁻¹ | Kd (Mouse GDF15 Fc): 3.08 nM | Kd (Cyno GDF15 Fc): 0.413 nM | Kd (Human GDF15 Fc [2]): 0.921 nM | GDF15 GFRAL RET pERK Fab IC50 pM [3]: 46.7 pM
B1: GDF15 antibody agent Clone E, Fab (Fab, V domains shown)
VH: QVQLVQSGAEVKKPGASVKVSCKASGYTFTSYGINWVRQAPGQGLEWMGWITAYSGDTNYAQKLQGRVTMTTDTSTSTAYMELRSLRSDDTAVYYCARGPGQYADVDVWGQGTMVTVSS
VL: DIQMTQSPSSVSASVGDRVTITCRASQGISSWLAWYQQKPGKAPKLLIYAASSLQSGVPSRFSGSGSGTDFTLTISSLQPEDFATYYCQQANSFPITFGGGTKVEIK
notes: Fab; CH1 and CL of the Fab not specified; also called Fab of Clone E

Kd (Human GDF15 Fc [1]): 0.23 nM | koff (Human GDF15 Fc [1]): 0.00112 s⁻¹ | kon (Human GDF15 Fc [1]): 4.87e+06 M⁻¹ s⁻¹ | Kd (Mouse GDF15 Fc): 333 nM | Kd (Cyno GDF15 Fc): 2.4 nM | Kd (Human GDF15 Fc [2]): 2.11 nM | GDF15 GFRAL RET pERK Fab IC50 pM [3]: 169 pM
B2: GDF15 antibody agent Clone K, Fab (Fab, V domains shown)
VH: QVQLVQSGAEVKKPGASVKVSCKASGYTFTNEGISWVRQAPGQGLEWMGWISAYTADTFYAQKLQGRVTMTTDTSTSTAYMELRSLRSDDTAVYYCARTRHDTSGLRFDYWGQGTLVTVSS
VL: B1 VL with S30D, A91V, N92H
notes: Fab; CH1 and CL of the Fab not specified; also called Fab of Clone K

Kd (Human GDF15 Fc [1]): 0.0341 nM | koff (Human GDF15 Fc [1]): 7.11e-05 s⁻¹ | kon (Human GDF15 Fc [1]): 2.08e+06 M⁻¹ s⁻¹ | Kd (Mouse GDF15 Fc): 1.6 nM | Kd (Cyno GDF15 Fc): 0.077 nM | Kd (Human GDF15 Fc [2]): 0.016 nM
B3: GDF15 antibody agent Clone O, Fab (Fab, V domains shown)
VH: QVQLVQSGAEVKKPGATVKVSCKASGYTFDSLGMSWVRQAPGQGLEWMGYISTYSGDTVYAQKLQGRVTMTTDTSTSTAYMELRSLRSDDTAVYYCARESGQQVSALDPWGQGTLVTVSS
VL: B1 VL with S31R, A91G, N92A, I96L
notes: Fab; CH1 and CL of the Fab not specified; also called Fab of Clone O

Kd (Human GDF15 Fc [1]): 0.0411 nM | koff (Human GDF15 Fc [1]): 4.52e-05 s⁻¹ | kon (Human GDF15 Fc [1]): 1.1e+06 M⁻¹ s⁻¹ | Kd (Mouse GDF15 Fc): 1.92 nM | Kd (Cyno GDF15 Fc): 0.369 nM | Kd (Human GDF15 Fc [2]): 0.613 nM
B4: GDF15 antibody agent Clone T, Fab (Fab, V domains shown)
VH: B1 VH
VL: B1 VL with N92S, S93Q
notes: Fab; CH1 and CL of the Fab not specified; also called Fab of Clone T

Kd (Human GDF15 Fc [1]): 0.126 nM | koff (Human GDF15 Fc [1]): 0.0021 s⁻¹ | kon (Human GDF15 Fc [1]): 1.66e+07 M⁻¹ s⁻¹ | Kd (Cyno GDF15 Fc): 1.72 nM | Kd (Human GDF15 Fc [2]): 3.68 nM | GDF15 GFRAL RET pERK Fab IC50 pM [3]: 701 pM and 1000 pM
B5: GDF15 antibody agent Clone P, Fab (Fab, V domains shown)
VH: B3 VH with L32Y, M34I, S35H, Y50W, S52T, T53A, Q103T, V104S, D108G
VL: B1 VL with S31R, A91G, N92A, I96L
notes: Fab; CH1 and CL of the Fab not specified; also called Fab of Clone P

Kd (Human GDF15 Fc [1]): 0.144 nM | koff (Human GDF15 Fc [1]): 0.000576 s⁻¹ | kon (Human GDF15 Fc [1]): 3.99e+06 M⁻¹ s⁻¹ | Kd (Mouse GDF15 Fc): 229 nM | Kd (Cyno GDF15 Fc): 1.56 nM | Kd (Human GDF15 Fc [2]): 1.58 nM | GDF15 GFRAL RET pERK Fab IC50 pM [3]: 2.1 µM
B6: GDF15 antibody agent Clone L, Fab (Fab, V domains shown)
VH: B2 VH with T30A, N31S, E32Y, G33D, S35I, Y54L, T55S, A56G, F59V, L106I
VL: B1 VL with S30D, A91V, N92H
notes: Fab; CH1 and CL of the Fab not specified; also called Fab of Clone L
